The record followed here is patent US20180079804A1 (Hoffmann-La Roche, published 2018).

The term EC50 denotes the concentration needed to bring the measured effect to its halfway point. One may read the Kd as the equilibrium constant for the complex coming apart. Low values mean tighter binding, high ones weaker binding. What is called koff is a measure of how fast the partners let go of each other. Low readings indicate slow dissociation, high ones fast dissociation. What is called kon is the second-order rate constant of association. A high value points to faster complex formation.

Numbering of substitutions follows the chain as printed. Non-standard residues stand in square brackets, D forms with d. No end group written: not given here. *: point of attachment. Biotin = O=C1N[C@H]2[C@H](CS[C@H]2CCCCC(=O)*)N1; pS = N[C@@H](COP(=O)(O)O)C(=O)O; code U = not defined here; code X = not defined here Some results are limits rather than exact numbers.

T1: tau peptide residues 416 to 430 of SEQ ID NO: 01 (human, also: biotinylated, site not given here)
T1 construct: also called non-phosphorylated tau peptide
T1 peptide: SIDMVDSPQLATLAD

T2: Tau(pS422) fragment SEQ ID NO: 03 (human)
T2 construct: also called phosphorylated tau peptide
T2 peptide: SIDMVD[pS]PQLATLAD

T3: biotinylated pTau fragment pTau(416-430)[Bi-XUUUU-416; pSer-422]amid (human, reading uncertain; also: printed as pTau(416-430)[Bi-XUUUU-416; pSer-422]amid)
T3 construct: also called Tau(pS422) fragment
T3 peptide: {Biotin-code X-code U-code U-code U-code U}-SIDMVD[pS]PQLATLAD-NH2

B1: VH35H5/VL31A1 (antibody, V domains shown)
VH: EVQVLESGGGLVQPGGSLRLSCAVSGISLSSNAINWVRQAPGKGLEWVGYIAVSGNTYYASWAKGRFTISRDNSKNTVYLQMNSLRAEDTAVYYCGKSNIWGQGTLVTVSS
VL: AQVMTQSPSSLSASVGDRVTITCRSSQSVRNNKLAWFQQKPGQPPKRLIYSASDLDYGVPSRFSGSGSGTEFTLTISSLQPEDFATYYCLGYFDSSADIVAFGGGTKVEIK
notes: IgG captured via anti-human Fc; also called antibody 1
B2: VH35H5/VL49G1 (antibody, V domains shown)
VH: B1 VH
VL: B1 VL with N31S, D54N
notes: IgG captured via anti-human Fc; also called antibody 2
B3: VH32/VL35G4 (antibody, V domains shown)
VH: B1 VH with I27F
VL: B1 VL with N31T, D54T, Y57F, L90A, D94E, S95A, S96P
notes: IgG captured via anti-human Fc
B4: VH35H5/VL35F2 (antibody, V domains shown)
VH: B1 VH
VL: B1 VL with N31T, D54T, Y57F, S96P, A97L
notes: as for B3
B5: VH32/VL4G1 (antibody, V domains shown)
VH: B1 VH with I27F
VL: B1 VL with N31T, D54T, Y57F, S96P
B6: VH76A6/VL35G4 (antibody, V domains shown)
VH: B1 VH with I27F, S31N, N32S
VL: B1 VL with N31T, D54T, Y57F, L90A, D94E, S95A, S96P
notes: as for B3
B7: VH32/VL22 (antibody, V domains shown)
VH: B1 VH with I27F
VL: B1 VL with N31T, K33R, D54T
notes: full size IgG
B8: VH76A6/VL145B12 (antibody, V domains shown)
VH: B1 VH with I27F, S31N, N32S
VL: B1 VL with N31S, S51A, D54N, Y57F
notes: as for B3
B9: VH00/VL00 (antibody, V domains shown)
VH: QSVEESGGRLVTPGTPLTLTCTVSGFSLSSNAINWVRQAPGKGLEWIGYIAVSGNTYYASWAKGRFTISKASTTVDLKMTSPTAEDTGTYFCGKSNIWGPGTLVTVSL
VL: AQVLTQTTSPVSAAVGSTVTISCQSSQSVRTNKLAWFQQKPGQPPKRLIYSASTLDFGVPSRFSASGSGTQFTLTISDVQCDDAATYYCLGYFDCSIADCVAFGGGTEVVVK
notes: variable domains of rabbit mAb 086; also called VH00 with VL00 (rabbit antibody); parental rabbit antibody
B10: mAb 086 (antibody, V domains shown)
VH: B9 VH
VL: B9 VL
notes: also called rabbit antibody 086
B11: VH35H5/VL31A1 Fab fragment (Fab, V domains shown)
VH: B1 VH
VL: B1 VL
B12: VH32/VL22 Fab fragment (Fab, V domains shown)
VH: B1 VH with I27F
VL: B1 VL with N31T, K33R, D54T
B13: VH35H5/VL49G1 Fab fragment (Fab, V domains shown)
VH: B1 VH
VL: B1 VL with N31S, D54N
B14: VH32/VL21 (antibody, V domains shown)
VH: B1 VH with I27F
VL: B1 VL with N31T, D54T, Y57F
notes: full size IgG

One assay deals with T4, full length human tau SEQ ID NO: 01 (human, UniProt P10636 1-758).
T4 construct: not phosphorylated; also called tau protein; non-phosphorylated full-length human tau
T4 sequence (P10636 other isoform, or with tags, fused parts or gaps limits assumed): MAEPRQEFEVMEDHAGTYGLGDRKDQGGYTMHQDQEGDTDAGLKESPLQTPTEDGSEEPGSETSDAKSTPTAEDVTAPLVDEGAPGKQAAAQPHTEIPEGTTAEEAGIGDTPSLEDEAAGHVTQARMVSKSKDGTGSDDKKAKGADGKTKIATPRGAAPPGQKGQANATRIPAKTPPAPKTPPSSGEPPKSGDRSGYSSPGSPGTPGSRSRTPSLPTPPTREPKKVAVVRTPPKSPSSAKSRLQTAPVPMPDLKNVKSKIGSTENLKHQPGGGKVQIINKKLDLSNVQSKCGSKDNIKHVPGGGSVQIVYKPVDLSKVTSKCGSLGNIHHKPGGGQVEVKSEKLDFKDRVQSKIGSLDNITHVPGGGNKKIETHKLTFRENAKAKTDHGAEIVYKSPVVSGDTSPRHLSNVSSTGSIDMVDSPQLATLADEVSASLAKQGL
Kind of assay: ELISA. The procedure: (§1) Non-biotinylated peptide/protein/aggregate was added to non-coated Maxisorb plates, biotinylated peptide/protein/aggregate in PBS was added to streptavidin-coated Maxisorb plates, and plates were incubated over-night. The supernatant was discarded and the wells washed three times with 90 μl wash buffer (1x PBS/0.1% Tween 20). Remaining reactive spots were blocked with blocking buffer (1x PBS/2% BSA (Bovine Serum Albumin Fraction V, fatty acid free, Roche, Cat. No.: 10735078001)/0.05% Tween 20) by incubating for 1 hour. The supernatant was discarded and the wells washed three times with 90 μl wash buffer. Samples and control antibody were prepared in 12 dilutions (1:2) in ELISA buffer (1×PBS/0.5% BSA (Bovine Serum Albumin Fraction V, fatty acid free, Roche, Cat. […] The incubation time was 60 minutes at room temperature on a shaker. The supernatant was discarded and the wells washed three times with 90 μl wash buffer. Solutions of secondary antibody were prepared in ELISA buffer. A total of 25 μl antibody-mix was transferred to all wells of the assay plate and the plate was thereafter incubated on shaker for 60 minutes at room temperature. The supernatant was discarded and the wells were washed three times with 90 μl wash buffer. 25 μl of ABTS solution was added to all wells. The absorbance was read at 405 nm-492 nm.
A general note: An ELISA detects its analyte on a solid surface through an enzyme-linked reagent.
Take B1: the “OD@1 µg/mL” value turned out to be 0.04 OD.

Turning to B2, the “OD@1 µg/mL” value came to 0.04 OD.

For B3, the “OD@1 µg/mL” value turned out to be 0.04 OD.

For the molecule B4, the “OD@1 µg/mL” value amounted to 0.04 OD.

B5: the “OD@1 µg/mL” value was 0.04 OD.

With B6, the “OD@1 µg/mL” value stood at 0.04 OD.

For B7, the “OD@1 µg/mL” value came to 0.14 OD.

Consider B8, for which the “OD@1 µg/mL” value came out at 0.04 OD.

Consider B9, for which the “OD@1 µg/mL” value was determined as 0.04 OD.

In the next assay the target is T1, tau peptide residues 416 to 430 of SEQ …. Description: ELISA. The procedure:
as §1
On to B1, for which the “OD@1 µg/mL” value is 1.03 OD.

Turning to B2, the “OD@1 µg/mL” value was found to be 1.42 OD.

For B3, the “OD@1 µg/mL” value is 0.07 OD.

Turning to B4, the “OD@1 µg/mL” value was found to be 1.31 OD.

As for B5, the “OD@1 µg/mL” value amounted to 1.13 OD.

With B6, the “OD@1 µg/mL” value was 0.07 OD.

With B7, the “OD@1 µg/mL” value turned out to be 2.26 OD.

In the case of B8, the “OD@1 µg/mL” value was 0.44 OD.

As for B9, the “OD@1 µg/mL” value stood at 0.54 OD.

A further assay concerns the target T2, Tau(pS422) fragment SEQ ID NO: 03. Kind of assay: ELISA. The procedure:
as §1
In turn, B1 returned an EC50 of 0.033 µg/mL.

B2 yielded an EC50 of 0.034 µg/mL. The EC50 values of the last two molecules are within 1.5-fold of each other.

B4: the response was half-maximal at 0.0452 µg/mL (EC50).

B5 had an EC50 of 0.0273 µg/mL.

On to B7, for which the response was half-maximal at 0.0404 µg/mL (EC50).

A further assay shares this target. Kind of assay: SPR capture assay (Example 10), 25 C. The procedure:
Binding of pTau fragment to anti-pTau antibodies was investigated by surface plasmon resonance using a BIACORE T200 instrument (GE Healthcare). Around 10,000 resonance units (RU) of the capturing system (10 μg/ml goat anti-human Fc antibody; Jackson Immuno Research; Order Code: JIR 109-005-098) were coupled on a CM5 chip (GE Healthcare BR-1005-30) at pH 5.0 by using an amine coupling kit supplied by the GE Healthcare. As running buffer, HBS-N pH 7.4 (10 mM HEPES, 150 mM NaCl, pH 7.4, GE Healthcare) was used. For measurement of the samples, running and dilution buffer was PBS-T (10 mM phosphate buffered saline including 0.05% Tween 20), pH 7.4. The sample block was set to 12° C. The flow cell was set to 25° C. and primed with running buffer twice.
As to B1, the dissociation constant Kd was 1.62 nM, the koff came to 0.000616 s⁻¹ and the kon is 380000 M⁻¹ s⁻¹.

B2 yielded a Kd of 2 nM, a dissociation rate constant (koff) of 0.000624 s⁻¹ and a kon of 312000 M⁻¹ s⁻¹.

Molecule B4 returned a Kd of 2.29 nM, a koff of 0.000321 s⁻¹ and a kon of 140000 M⁻¹ s⁻¹.

The target is the same in the next assay. Description: ELISA, ratio of EC50 values. The method, then: Rabbit monoclonal antibodies were recombinantly expressed in HEK293 cells. […] For preparation of ELISA plates, streptavidin pre-coated microtiter plates were incubated with biotinylated tau (415-430)[pS422] at 50 ng/ml for 1 hour at room temperature. Coating with KLH or control peptides was performed at 1 μg/ml. Rabbit anti-Tau(pS422) antibody (Abcam AB51071) or rabbit antibody containing supernatants were incubated in the antigen labeled microtiter plates for 60 minutes at various concentrations. After intensive washing, the binding of the rabbit antibodies was detected using a sheep anti-rabbit IgG […] conjugated detection antibody (Chemicon AQ301D). After incubation with TMB at room temperature absorbance at 370 nm-492 nm was measured. The antibody binding was characterized by its EC₅₀ values. […] Cross-reactivity with KLH or MCAK phosphopeptide was estimated by single-point measurement at high concentrations, i.e., at 1:5 dilution of the cell culture supernatants. […] Binding to KLH and MCAK control phosphopeptide was at background level with all antibodies, which is about 1 to 3% of the maximal value measures with tau phosphopeptide.
As for B10, the “selectivity for phosphorylated tau fragment compared to non-phosphorylated tau peptide” value is ≥ 100 fold.

The target is the same in the next assay. Description: ELISA. This is another data set of the same source. The method, then: Non-biotinylated peptide/protein/aggregate was added to non-coated Maxisorb plates, biotinylated peptide/protein/aggregate in PBS was added to streptavidin-coated Maxisorb plates, and plates were incubated over-night. The supernatant was discarded and the wells washed three times with 90 μl wash buffer (1x PBS/0.1% Tween 20). Remaining reactive spots were blocked with blocking buffer (1x PBS/2% BSA (Bovine Serum Albumin Fraction V, fatty acid free, Roche, Cat. No.: 10735078001)/0.05% Tween 20) by incubating for 1 hour. The supernatant was discarded and the wells washed three times with 90 μl wash buffer. Samples and control antibody were prepared in 12 dilutions (1:2) in ELISA buffer (1×PBS/0.5% BSA (Bovine Serum Albumin Fraction V, fatty acid free, Roche, Cat. No.: 10735078001)/0.05% Tween 20) with a start concentration of 500 ng/mL. The incubation time was 60 minutes at room temperature on a shaker. The supernatant was discarded and the wells washed three times with 90 μl wash buffer. Solutions of secondary antibody were prepared in ELISA buffer. A total of 25 μl antibody-mix was transferred to all wells of the assay plate and the plate was thereafter incubated on shaker for 60 minutes at room temperature. The supernatant was discarded and the wells were washed three times with 90 μl wash buffer. 25 μl of ABTS solution was added to all wells. The absorbance was read at 405 nm-492 nm.
On to B7, for which the EC50 was determined as 0.0056 µg/mL.

The target of a further assay is T3, biotinylated pTau fragment …. Description: SPR direct assay (Example 11), Fab over immobilized biotinylated fragment, 25 C. The method, then: Binding of anti-pTau antibody Fab fragment samples to pTau fragment was investigated by surface plasmon resonance using a BIACORE T200 instrument (GE Healthcare). […] Running and dilution buffer for immobilization was HBS-N, pH 7.4 (10 mM HEPES, 150 mM NaCl, pH 7.4, GE Healthcare). For the following kinetic characterization, running and dilution buffer was PBS-T (10 mM phosphate buffered saline including 0.05% Tween 20), pH 7.4. The sample block was set to 12° C. The flow cell was set to 25° C. and primed with running buffer twice.
Association was measured by injection of the anti-pTau antibody Fab fragment samples at various concentrations in solution for 180 seconds at a flow of 30 μl/min starting with 100 nM in 1:3 dilutions. The dissociation phase was monitored for up to 600 seconds and triggered by switching from the sample solution to running buffer. The surface was regenerated by washing with one injection of 10 mM glycine solution, pH 1.7 for 60 seconds at a flow rate of 10 μl/minute. Bulk refractive index differences were corrected by subtracting the response obtained from a blank surface. Blank injections were also subtracted (=double referencing). For calculation of KD and other kinetic parameters the Langmuir 1:1 model was used.
The molecule B11 gave a Kd of 0.3 nM, a koff of 0.000143 s⁻¹ and a kon of 410000 M⁻¹ s⁻¹.

Consider B12, for which the Kd worked out at 0.6 nM, the koff stood at 0.000276 s⁻¹ and the kon is 479000 M⁻¹ s⁻¹.

Molecule B13 displayed a Kd of 0.1 nM, a koff of 6.03e-05 s⁻¹ and a kon of 423000 M⁻¹ s⁻¹.

The next assay has as its target T4, full length human tau SEQ ID NO: 01. Description: ELISA, non-phosphorylated full-length human tau coated at 1 ug/ml, antibody titrated.
As to B14, the binding result is on record as “no binding (tested: 1000 ng/ml)”.

Take B7: the binding result is given as “no binding (tested: 1000 ng/ml)”.
